According to PMC6965176, “Targeting Forward and Reverse EphB4/EFNB2 Signaling by a Peptide with Dual Functions” (Scientific Reports, 2020):
Non-standard residues stand in square brackets, D forms with d. No end group written: not given here.

What was measured:
EphB4 = molecular target: T1, EphB4 (Homo sapiens, UniProt P54760); assay: SPR (BIACore) binding of peptides to immobilized EphB4; settings: rhEphB4-coated chips, 0.16-20 nM equivalent BIDEN-AP, duplicate, visual inspection; poor fitting to 1:1 or 1:2 models (Fig. 3B)
T1 construct: purchased R&D Systems
T1 sequence (P54760 16-987): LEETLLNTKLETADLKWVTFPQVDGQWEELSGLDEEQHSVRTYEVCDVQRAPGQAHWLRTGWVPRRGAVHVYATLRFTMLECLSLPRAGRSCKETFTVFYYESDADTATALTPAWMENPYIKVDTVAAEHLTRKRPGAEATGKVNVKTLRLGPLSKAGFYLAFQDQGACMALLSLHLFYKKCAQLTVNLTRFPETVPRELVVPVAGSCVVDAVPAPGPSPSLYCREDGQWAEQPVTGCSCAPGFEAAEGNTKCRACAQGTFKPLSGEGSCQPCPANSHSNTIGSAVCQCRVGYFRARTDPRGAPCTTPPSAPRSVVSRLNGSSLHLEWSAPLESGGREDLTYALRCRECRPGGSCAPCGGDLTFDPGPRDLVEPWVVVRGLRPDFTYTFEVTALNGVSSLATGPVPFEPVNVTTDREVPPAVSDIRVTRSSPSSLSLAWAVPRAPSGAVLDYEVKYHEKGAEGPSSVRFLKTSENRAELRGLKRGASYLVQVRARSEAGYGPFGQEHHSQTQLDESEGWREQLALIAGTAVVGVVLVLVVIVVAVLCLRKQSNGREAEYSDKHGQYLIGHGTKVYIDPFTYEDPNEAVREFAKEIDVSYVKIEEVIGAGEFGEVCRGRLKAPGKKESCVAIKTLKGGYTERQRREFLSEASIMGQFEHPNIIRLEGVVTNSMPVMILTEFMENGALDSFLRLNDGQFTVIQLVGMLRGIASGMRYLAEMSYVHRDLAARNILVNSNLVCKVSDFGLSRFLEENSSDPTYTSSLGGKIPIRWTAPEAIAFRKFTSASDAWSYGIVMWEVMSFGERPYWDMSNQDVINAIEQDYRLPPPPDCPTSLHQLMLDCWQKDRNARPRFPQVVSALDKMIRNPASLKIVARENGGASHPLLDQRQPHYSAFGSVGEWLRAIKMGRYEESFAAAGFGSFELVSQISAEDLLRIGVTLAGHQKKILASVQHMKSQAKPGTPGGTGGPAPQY
Text: Surface plasmon resonance (SPR) binding and competition assays.
Immunoblotting, immunoprecipitation, and co-immunoprecipitation.

RF24_Bev cells = assay: Cell death in bevacizumab-resistant RF24 cells (SYTOX-green flow cytometry); assay type: cell-based; settings: VEGF + Bev, SYTOX-negative live cells by flow cytometry (Fig. 4C,D)
Experimental: Figure 4 BIDEN-AP–based agents inhibit tube formation and sensitize resistant endothelial cells to anti-VEGF antibody. (A,B) Tube formation by RF24 cells treated with EFNB2-Fc (2 nM) or BIDEN-AP (15 µM) compared to untreated controls (CTL). Representative data from three independent experiments are presented. (A) Representative microphotographs of tubes formed by RF24 cells are shown (n = 3). Images were taken at × 100 magnification. (B) Quantification of the number of nodes per field in three technical replicates. […] (C) Representative flow cytometry plots from three independent experiments of RF24_Bev cells are shown here. SYTOX-negative staining represents the live cell population.
Given the important role of endothelium in adaptive changes with antiangiogenic therapy, we further tested the effects of BIDEN-AP in overcoming resistance to anti-VEGF therapy in RF24 endothelial cells. To do this, we first established a bevacizumab (Bev)-resistant RF24 cell line (RF24_Bev) selected though continuous Bev treatment at low dose ([…]) for 2 weeks. The RF24_Bev cells were maintained at a Bev concentration of […]. Using flow cytometry with SYTOX-green staining, we quantified the live (SYTOX-negative) vs. dead (SYTOX-positive) populations after treatment with BIDEN-AP or CCPM-BIDEN-AP.

## CCPM-BIDEN-AP: nanoconjugate of BIDEN-AP with core-crosslinked polymeric micelles (CCPM) (TN[dY]LFSPNGPIARAW; also: conjugated to core-crosslinked polymeric micelles (CCPM))
EphB4
  binding avidity to immobilized EphB4 (SPR sensorgrams): stronger binding avidity to EphB4 than the unconjugated BIDEN-AP peptide
RF24_Bev cells
  re-sensitization of bevacizumab-resistant endothelial cells to Bev: re-sensitized these cells to Bev treatment
